In PMC6509359:
Several values for one entry are separate records, joined by “and”; a condition that tells them apart may be missing. Equal entries are not always repeated.

T1: Human USP25 (1-1055) (human), Q9UHP3
T1 chain: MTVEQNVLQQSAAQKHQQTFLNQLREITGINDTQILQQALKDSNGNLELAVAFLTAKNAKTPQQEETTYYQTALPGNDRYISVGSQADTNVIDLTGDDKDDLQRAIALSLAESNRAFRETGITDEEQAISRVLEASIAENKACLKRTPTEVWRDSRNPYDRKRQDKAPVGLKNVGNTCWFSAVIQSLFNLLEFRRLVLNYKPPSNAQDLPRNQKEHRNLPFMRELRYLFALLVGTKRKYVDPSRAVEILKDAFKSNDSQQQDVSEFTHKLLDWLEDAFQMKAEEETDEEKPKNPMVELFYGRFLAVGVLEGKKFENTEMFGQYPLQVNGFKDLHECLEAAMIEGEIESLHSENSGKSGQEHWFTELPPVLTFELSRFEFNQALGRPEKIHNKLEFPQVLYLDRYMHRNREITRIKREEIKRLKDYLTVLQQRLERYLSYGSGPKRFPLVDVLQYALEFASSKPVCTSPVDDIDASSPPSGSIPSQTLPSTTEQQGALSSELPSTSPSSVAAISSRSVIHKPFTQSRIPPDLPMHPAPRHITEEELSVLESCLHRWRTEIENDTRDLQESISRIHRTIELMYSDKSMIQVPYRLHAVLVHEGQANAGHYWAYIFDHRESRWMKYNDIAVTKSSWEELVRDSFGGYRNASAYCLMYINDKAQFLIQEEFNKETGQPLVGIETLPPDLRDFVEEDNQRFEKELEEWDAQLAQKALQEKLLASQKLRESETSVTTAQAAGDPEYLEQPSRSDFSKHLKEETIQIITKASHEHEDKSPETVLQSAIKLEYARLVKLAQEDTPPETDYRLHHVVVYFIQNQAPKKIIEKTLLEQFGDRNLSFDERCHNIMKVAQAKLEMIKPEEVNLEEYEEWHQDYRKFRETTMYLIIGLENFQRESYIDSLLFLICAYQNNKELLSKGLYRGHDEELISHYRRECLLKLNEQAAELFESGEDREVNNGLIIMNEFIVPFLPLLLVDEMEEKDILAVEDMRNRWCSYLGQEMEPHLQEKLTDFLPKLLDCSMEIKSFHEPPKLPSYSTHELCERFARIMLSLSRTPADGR

T2: endogenous USP25 (human (endogenous in HEK293)), Q9UHP3
T2 chain: T1 chain

B1: Human USP25 (1-1055), Q9UHP3 1-1055 (enzyme)
chain: T1 chain
B2: endogenous USP25, Q9UHP3 1-1055 (enzyme)
chain: T1 chain

Key:
Settings in all cases: remark: other sources report otherwise
[1] = target: T1, Human USP25 (1-1055) (human), Q9UHP3; experiment: SEC-MALS; five-fold dilution series (1 mg/mL, 0.2 mg/mL, 0.04 mg/mL sample concentration)
[2] = target: T1, Human USP25 (1-1055) (human), Q9UHP3; experiment: SEC + native gel or EMSA; recombinant full-length USP25 on HiLoad 16/600 Superdex 200 pg in buffer E immediately before native PAGE, Ponceau staining
[3] = target: T1, Human USP25 (1-1055) (human), Q9UHP3; experiment: not stated; oligomeric states of purified orthologs and of full-length proteins, Figures S7A, S7B and S3J
[4] = target: T2, endogenous USP25 (human (endogenous in …)); experiment: native gel or EMSA; native PAGE of lysate of untreated HEK293 cells, immunoblotting for the endogenous protein; recombinant USP25 tetramer and dimer fractions as size standard

| Binder | stoichiometry N [1] | stoichiometry N [2] | stoichiometry N [3] | stoichiometry N [4] |
| --- | --- | --- | --- | --- |
| B1 | 4 and 2 | 4 and 2 | 2 and 4 | – |
| B2 | – | – | – | 2 and 4 |
